{"source": "paper PMC9274624", "molecular_target": "Malayan pangolin ACE2 extracellular domain (residues 1-740) fused with the Fc domain of mouse IgG (Malayan pangolin)", "assay": "SPR", "data": [{"substance": "SARS-CoV-2 Delta RBD (residues 319-541) (from UniProt P0DTC2 319-541) (domain or fragment)", "values": [{"measurement": "Kd", "result": 58.2, "unit": "nM"}]}]}
